# Reference: the nanobody polyreactivity screen of Harvey et al. (2022)
# Experiment: yeast display, Sf9 membrane polyspecificity reagent, FACS + sequencing; frameworks hold sequencing errors
# Summary of the method: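 A nanobody's polyreactivity label depends on the gate it was sorted from. Yeast display cells were stained with 10% biotinylated, detergent-solubilized Sf9 membrane reagent for 1 hour at 4 °C, enriched on streptavidin microbeads and sorted by FACS. The low and high (top ~1%) gates were set on anti-HA fluorescence for expression and streptavidin fluorescence for reagent binding.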
row,Sequence,polyreactivity (PSR sort gate)
1,QVQLVESGGGLVQAGGSLRLSCAASGSTFWFYPMGRYRQAPGKERELVAVISNSGSTYYADSVKGRFTISRDNAKNTVYLQMNSLKPEDTAVYYCNKDGGGDSYWYDYWGQGTQVTVSS,low polyreactivity
2,QVQLVESGGGLVQAGGSLRLSCAASGIIFHPYAMGWYRQAPGKERELVAVITWPGDSTYYADSVKGRFTISRDNAKNTVYLQMNSLKPEDTAVYYCNVDAWGTSGELPYDYWGQGSQVTVSS,low polyreactivity
3,QVQLVESGGGLVQAGGSLRLSCASSGSIFSHYAMGWYRQAPGKERELVAAISRSGGSTYYADSVKGRFTISRDNAKNTVYLQMNSLKPEDTAVYYCAKEGDSGDWFDYWGQGTQVTVSS,low polyreactivity
4,QVQLEESGGGLVQAGGSLRLSCAASGITFSLYVMGWFRPAPGKESELVATISFNVASTYADSVKGRFTISRVNAKNTVYLQMYSLTPEDTAVYYCNADTYWYRDSRYDYCGQGTQVTVSS,low polyreactivity
5,QVQLVESGGGLVQAGGSLRLSCAASGFIFYDYAMGWYRQAPGKERELVAAIRSSDGGTYYADSVKGRFTISRDNAKNTVYLQMNSLKPEDTAVYYCAAEIRWGWHPYYDYDEYWGQGTQVTVSS,low polyreactivity
6,QVQLVESGGGLVQAGGSLRLSCAASGTIFPTYAMGWYRQAPGKERELVAAISSIVGGTYYAHSVKGRFTISRDNAKNTVYLQMNSLKPEVTAVYYCAAPEDKYQHCIYGAYGVDYWGQGTQVTVSS,low polyreactivity
7,QVQLVESGGGLVQAGGSLRLSCAASGLIFRWYAMGWYRQAPGKEWELVAAISRRGGTTNYADSVKGRFTISRDNAKKTVYLQMNSLKPEDTAVYYCAADYQSVGGAEYDYWGQGTQVTVSS,high polyreactivity
8,QVQLQESGGGLVQAGGSLRLSCAASGTISQEDWMGWYRQAPGKEREFVAAIGLGSNTNYADSLKGRFTISRDNAKNTVYLQMNSLKPEDTAVYYCAVSVWQYSDNVYRGQGTQVTVSS,low polyreactivity
9,QVQLVESGGGLVQAGGILRLSCAASGSIFYHYAMGWYRQAPGKDREFVAAITRRGTSTYYADSVKGRFTISRDIAKKTVYLQMNSLKPEDTAVYYWAARYGPNMDYWGQGTQVTVSS,high polyreactivity
10,QVQLVESGGGLVQAGGSLRLSCAASGFIFRWYAMGWSRQAPGKERELVAAISRGGSTNYADSVKGRFTISRDNAKNTVYLQMISLKPEDTAVYYCNARYVSYSGRYVIGQYVKYDYWGQGTQVTVSS,high polyreactivity
11,QVQLVESGGGLVQAGGSLRLSCAASGFTIYIYVMGWYRQAPGKETELVADITWSGGRTYYADSVKGRFTISRDNAKNTVYLQMNSLKPEDTAVYYCAASYPGLSYHKYEYWGQGTQVTVSS,high polyreactivity
12,QVQLVESGGGLVQAGGSLRLSCAASGSTFVLYAMGWYRQAPGKERELVAAIDSSGGSTYYADSVKGRFTISRDNAKNTVYLQMNSLKPEDTAVYYCAKAGRYANLPYGYWGQGTQVTVSS,high polyreactivity
13,QVQLVESGGGLVQAGGSLRLSCAASGSIFPRYAMGWYSQAPGKERELVATISYRGGTTYYADSVKGRFTISRDNEKNTVYLQMNSLKPEDSAVYYCNTLYYRGIYDPWGQGTQVTVSS,high polyreactivity
14,QVQLVESGGGLVQAGGSLRLSCAASGSTFTNYAMGWYRPAPGKERELVARITSSGSRTYYADSVKGRFTISRDNAKNTVYLQMNSLKPEDTAVYYCNAETYYLRYGRGYRRFDYWGQGTQVTVSS,high polyreactivity
15,QVQLVESGGGLVQAGGSLRLSCAASGSIFFSNTMGWYRQAPGKERELVARITWSGTSTNYADSVKGRFTISRDNAKNTVYLQMNSLKPEDTAVYYCNAGFYTSAGYDYWGQGTQVTVSS,high polyreactivity
16,QVQLVESGGGLVQAGGSLRLSCAASGSIFGRNAMGWYRPAPGKERELVAAISRRGGNTYYADSVKGRFTISRDNAKNTVYLQMNSLKPEDTAVYYCAAEVKTSYSYTHDGYWGQGTQVTVSS,high polyreactivity

row,Sequence,polyreactivity (PSR sort gate)
1,QVQLVESGGGLVQAGGSLRLGCAASGGTITSYAMGWYRQAPGKERELVAAITVSGSSTYYADSVKGRFTISRDNAKNTVYLQMNSLKPEDTAVYYCAARWRRFQFDYWGQGTQVTVSS,high polyreactivity
2,QVQLVESGGGLVQAGGSLRLSCAASGSTFHDNAMGWYIQAPGKERELVAAISSGGRTNYADSVKGRFTISRDNAKNTVYLQMNSLKPEDTAVYYCAASFRRWYFYDRHEYGYWGQGTQVTVSS,low polyreactivity
3,QVQLVESGGGLVQAGGSLRLSCAASGHTFRYYAMGWYRQAPGKERELVAAITGGGGSTYYADSVKGRFTISRDNAKNTVYLQMNSLKPEDTAVYYFATGGVSGIVGGDYWGQGTQVTVSS,low polyreactivity
4,QVQLVESGAGLVQAGGSLRLSCAASGYAMGWYRQAPGKERELVAAITSNGGRTYYADSVKGRFTISRDYAKNTVYLEMNSLKPEDTAVYYCATRTGPHYKTRWTYDQGYWGQGTQVTVSS,low polyreactivity
5,QVQLVESGGGLVQAGGSLRLSCAASARIFDTYAMGWYRQAPGKETELVDSISIDGSTYYADSVKGRFTISRDNAKNTVYLQMNSLKPEDTAVYYCNADGRYYTVRFEYWGQGTQVTVSS,low polyreactivity
6,QVQLVESGGGLVQAGGSLRISCAASGSTFWNAMGWYRQAPGKERELVAAIRLSGGSTYYADSVKGRFTISRDNAKNTVYLQMNSLKPEDTAVYYCNSDVTFGYWEYDYWGQGTQVTVSS,low polyreactivity
7,QVQLVESGGGLVQAGGSLRLSCAASGRTFVTYAMGWYRQAPGKERELVAAISASGGSTYYADSVKGRFTISRDNAKNTVYLQMNSLKTEDTAVYYCAKTYFLATPYGYWGQGTQVTVSS,low polyreactivity
8,QVQLVESGGGLVQAGGSLRLSCAASGSTFYFNAMGWSRQAPGKERELVAAIDWSGGSTYYADSVKGRFTISRDNAKNTVYLQMNSLKPEDTAVYYCITVPNRARISTLYGYDYWGQGTQVTVSS,low polyreactivity
9,QVQLVESGGGLVQAGGSLRLSCAASGFTFPYYAMGWYRQAPGKERELVAAISWDGGITYYADSVKGRFTISRDNAKNTVYLQMNSLKPEDTAVYYCNVEGWYDYDYWGQGTQVTVSS,high polyreactivity
10,QVQLVESGGGLVQAGGSLRLSCAASGRTFVNYVMGWYRQAPGKEREFVAAISRNGGSTYYADSVKGRFTISRDNAKNTVYLQMNSLKPEDTAVYYCAARVYWRYNYWGQGTQVTVSS,high polyreactivity
11,QVQLVESGGGIVQAGGSLRLICAASGSIFSSYVMGWYRQAPGKERELVAAITSRGGSTYYADSVKGRFTISRDNAKNTVYLQMNSLKPEDTAVYYCAKGGTTWYWSGYRSIYFRYDYWGQGTQVTVSS,high polyreactivity
12,QVQLVESGGGLDQAGGSLRLICAASGLTFYLYAMGWYRQAPGKERELVAAISTRGGSTRYADSVKGRFTISRDNAKNTVYLQMNSLKPEDTAVFDCNAVSKWLEYDYWGQGTQVTVSS,high polyreactivity
13,QDQLVESGGGLVQAGGSLRLSCAAYGSTFPVYTMGWYRQAPRKEREFVAAITGSGGRTYYADSVKGRFTISRDNAKNTVFLQMNSLKPEDTAVYYCNAYPKGRYAAAFPGMDYWGQGTQVTVSS,high polyreactivity
14,QVQLVESGGGLVQAGGSLRLSCAASGSIFSGYAMGWYRQAPGKERELVAALTRSGGRTYYADSVKGRFTISRDNAKNTVYLQMNSLKPEDTSVYYCATLPRYYGYWGQGTQVTVSS,high polyreactivity
15,QVQLVESGGGLVQAGGSLRLSCAASGSIFRVYAMGWYRQAPGKERELVAAISSIVGSTYYADSVKGRFTISRDNAKNTVYLQMNSLKPADTAVYYCNKDGTWPRTGSEYDYWGQGTQVTVSS,low polyreactivity
16,QVQLVESGGGLVQAGGSLRLSCAASGSIIGIYAMGWYRQAPGKEREMVAAINRGGSTYYADSVKGRFTISRDNAKNTVYLQMNSLKPEDTAVYYCSASPPYNTEFDYWGQGTQVTVSS,low polyreactivity
